In assay [1] the target is dog IgG (chrompure dog IgG) (dog).
The target in assay [2] is T1, tetanus neurotoxin (TeNT), authentic tetanus holotoxin (Clostridium tetani, UniProt P04958 2-1315). Kind of assay: ELISA, TeNT captured with cAb-TT2, biotinylated binder.
Target sequence in this assay (P04958 2-457 limits assumed, chain 1 of 2): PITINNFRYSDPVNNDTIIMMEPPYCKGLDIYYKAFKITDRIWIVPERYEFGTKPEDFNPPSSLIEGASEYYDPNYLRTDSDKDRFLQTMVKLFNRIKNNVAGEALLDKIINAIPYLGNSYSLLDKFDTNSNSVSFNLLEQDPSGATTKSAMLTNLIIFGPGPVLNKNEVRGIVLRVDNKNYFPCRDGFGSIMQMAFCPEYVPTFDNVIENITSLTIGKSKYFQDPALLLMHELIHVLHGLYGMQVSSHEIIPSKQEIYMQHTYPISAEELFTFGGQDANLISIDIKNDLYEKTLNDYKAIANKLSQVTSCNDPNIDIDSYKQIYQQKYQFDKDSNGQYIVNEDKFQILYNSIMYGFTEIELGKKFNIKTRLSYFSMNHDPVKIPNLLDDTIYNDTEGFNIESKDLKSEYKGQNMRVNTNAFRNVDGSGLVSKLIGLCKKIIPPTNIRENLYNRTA
Target sequence in this assay (P04958 458-1315 limits assumed, chain 2 of 2): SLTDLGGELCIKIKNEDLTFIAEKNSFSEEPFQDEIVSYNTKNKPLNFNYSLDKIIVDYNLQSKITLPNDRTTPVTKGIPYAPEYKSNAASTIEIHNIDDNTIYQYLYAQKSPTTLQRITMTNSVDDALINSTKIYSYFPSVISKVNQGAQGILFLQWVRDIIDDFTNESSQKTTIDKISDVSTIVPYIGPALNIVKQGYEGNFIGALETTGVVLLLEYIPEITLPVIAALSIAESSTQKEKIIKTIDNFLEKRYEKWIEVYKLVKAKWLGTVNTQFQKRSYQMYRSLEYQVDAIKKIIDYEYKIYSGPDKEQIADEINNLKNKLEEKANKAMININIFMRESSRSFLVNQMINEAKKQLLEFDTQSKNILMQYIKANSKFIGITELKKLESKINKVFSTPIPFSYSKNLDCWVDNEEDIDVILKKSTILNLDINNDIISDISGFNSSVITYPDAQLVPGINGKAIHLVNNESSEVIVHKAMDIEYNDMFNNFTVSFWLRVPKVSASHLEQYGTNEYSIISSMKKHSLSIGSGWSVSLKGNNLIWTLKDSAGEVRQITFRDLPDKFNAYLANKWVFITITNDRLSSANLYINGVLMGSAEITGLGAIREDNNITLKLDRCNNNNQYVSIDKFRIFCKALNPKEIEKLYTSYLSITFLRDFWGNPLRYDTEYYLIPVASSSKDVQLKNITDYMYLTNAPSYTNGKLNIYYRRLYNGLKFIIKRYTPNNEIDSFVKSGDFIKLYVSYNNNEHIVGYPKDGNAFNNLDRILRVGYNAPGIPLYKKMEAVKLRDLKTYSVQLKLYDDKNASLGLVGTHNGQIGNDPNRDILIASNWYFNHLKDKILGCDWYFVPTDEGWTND
Assay [3] has as its target T1, tetanus neurotoxin (TeNT), authentic …. In words: competition ELISA on TeNT, binder biotinylated; competitor mAb 11n185. Background: In an ELISA, binding on a coated surface is turned into a signal by an enzyme label.
Target sequence in this assay (P04958 2-457 limits assumed, chain 1 of 2): as the sequence (P04958 2-457 limits assumed, chain 1 of 2) above
Target sequence in this assay (P04958 458-1315 limits assumed, chain 2 of 2): as the sequence (P04958 458-1315 limits assumed, chain 2 of 2) above
For assay [4] the target is unchanged. Kind of assay: competition ELISA on TeNT, binder biotinylated; competitor SVT13L.
Target sequence in this assay (P04958 2-457 limits assumed, chain 1 of 2): as the sequence (P04958 2-457 limits assumed, chain 1 of 2) above
Target sequence in this assay (P04958 458-1315 limits assumed, chain 2 of 2): as the sequence (P04958 458-1315 limits assumed, chain 2 of 2) above
For assay [5] the target is unchanged. Kind of assay: ELISA, TeNT captured with cAb-TT2, unlabelled binder.
Target sequence in this assay (P04958 2-457 limits assumed, chain 1 of 2): as the sequence (P04958 2-457 limits assumed, chain 1 of 2) above
Target sequence in this assay (P04958 458-1315 limits assumed, chain 2 of 2): as the sequence (P04958 458-1315 limits assumed, chain 2 of 2) above
Assay [6] shares this target. In words: competition ELISA on TeNT, binder biotinylated; competitor SVT02L.
Target sequence in this assay (P04958 2-457 limits assumed, chain 1 of 2): as the sequence (P04958 2-457 limits assumed, chain 1 of 2) above
Target sequence in this assay (P04958 458-1315 limits assumed, chain 2 of 2): as the sequence (P04958 458-1315 limits assumed, chain 2 of 2) above
The target is the same in assay [7]. Kind of assay: competition ELISA on TeNT, binder biotinylated; competitor SVT15L-3FW4M.
Target sequence in this assay (P04958 2-457 limits assumed, chain 1 of 2): as the sequence (P04958 2-457 limits assumed, chain 1 of 2) above
Target sequence in this assay (P04958 458-1315 limits assumed, chain 2 of 2): as the sequence (P04958 458-1315 limits assumed, chain 2 of 2) above
Assay [8] shares this target. Kind of assay: competition ELISA on TeNT, binder biotinylated; competitor SVT03L.
Assay [9] has the same target. Kind of assay: competition ELISA on TeNT, binder biotinylated; competitor SVT34L.
Assay [10] shares this target. Kind of assay: competition ELISA on TeNT, binder biotinylated; competitor mAb 6F57.
For assay [11] the target is unchanged. Kind of assay: GT1b-TeNT inhibition ELISA, EC at A450 0.59.
For assay [12] the target is unchanged. Kind of assay: ELISA, directly coated TeNT, biotinylated binder.
Assay [13] has the same target. In words: competition ELISA on TeNT, binder biotinylated; competitor mAb 14F5.
Assay [14] shares this target. In words: competition ELISA on TeNT, binder biotinylated; competitor SVT22L.
Assay [15] shares this target. In words: ELISA, directly coated TeNT, unlabelled binder.
For assay [16] the target is unchanged. Kind of assay: competition ELISA on TeNT, binder biotinylated; competitor SVT08L.
For assay [17] the target is unchanged. Kind of assay: competition ELISA on TeNT, binder biotinylated; competitor SVT06L.
The target is the same in assay [18]. Kind of assay: competition ELISA on TeNT, binder biotinylated; competitor SVT15L.
Assay [19] shares this target. Kind of assay: competition ELISA on TeNT, binder biotinylated; competitor mAb 6E7.
Assay [20] shares this target. In words: GT1b-TeNT inhibition ELISA, unlabelled binder.
Assay [21] concerns the target T2, recombinant tetanus toxin fragment C (rTTC) (Clostridium tetani, UniProt P04958 865-1315).
T2 sequence: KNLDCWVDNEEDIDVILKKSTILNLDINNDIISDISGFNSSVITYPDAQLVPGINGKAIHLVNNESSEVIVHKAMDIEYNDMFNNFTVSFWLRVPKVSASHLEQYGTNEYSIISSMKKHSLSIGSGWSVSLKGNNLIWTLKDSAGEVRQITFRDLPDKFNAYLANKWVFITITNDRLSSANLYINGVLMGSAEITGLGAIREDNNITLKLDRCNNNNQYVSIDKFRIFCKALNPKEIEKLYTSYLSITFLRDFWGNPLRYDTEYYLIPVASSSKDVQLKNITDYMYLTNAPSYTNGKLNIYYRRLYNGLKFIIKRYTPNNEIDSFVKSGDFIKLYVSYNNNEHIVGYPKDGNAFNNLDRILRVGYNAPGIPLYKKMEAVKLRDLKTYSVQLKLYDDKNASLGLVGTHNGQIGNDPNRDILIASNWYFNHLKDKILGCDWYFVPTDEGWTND
Kind of assay: ELISA, directly coated rTTC, unlabelled binder.

Assay [22] concerns the target T1, tetanus neurotoxin (TeNT), authentic …. In words: competition ELISA on TeNT, binder biotinylated; competitor SVT16L.

B1: SVT02-GS2-SVG06M4-H6 (bispecific antibody)
chain: QVQLQQSGGGSVQAGGSLRLSCVGPQRTFSTYGMGWFRQAPGKEREFVAGINYKGDTTYYADSVKGRFTISRDNAKNTLYLQMDSLKPEDRAVYQCARKGGLGGDYRDAGQYRYWGQGTQVTVSSGGGGSGGGSEVQLVESGGALVQPGGSLRLSCAASGFPFSAYDMTWVRQAPGQGLEWVSTIHKSGGITTYADSVKGRFTISRDNAKNTLYLQMNNLESEDTAVYYCAKALRAHNSDYVGRNALGSWGQGTQVTVSSHHHHHH
In assay [1], B1 registered a maximal absorbance value of 0.06 A450.

B2: SVT34L (VHH)
VHH: QVQLQESGGGLVQPGGSLRLSCAASGRTISSYAMGWFRQAPGKQREFVAAISRSGGNTYYTDSVKGRFIISRDNAKNTLYLQMNNLKPEETAVYYCAADPNLMYESKWKYRALEAWGQGTLVTVSS
For the molecule B2, the “EC resulting in A450 0.2” value came out at 3.5 ng/mL in assay [2] and 1 ng/mL in [15]. In addition, the “maximal absorbance at 450 nm” value in assay [2] is 0.669; in assay [5], 0.335; in assay [12], 1.29; in assay [15], 1.54; in assay [21], 0.886. Also, the “% inhibition of binding” value in [3] was 2%; in [4], 93%; in assay [6], 2%; in assay [7] it was 14%; in assay [8], 0%; in assay [9], 95%. Further, the “% inhibition of binding” value was 13% in assay [10]; 4% in [13]; 94% in assay [14]; -4% in assay [16]; -2% in [17]; 3% in [18]. Also, the results for the “% inhibition of binding” value in assay [19] and in assay [22] were 10% and 93%, respectively. In addition, in [5], the “EC resulting in A450 0.15” value stood at 3.2 ng/mL. In addition, in [11], the “concentration giving A450 of 0.59” value stood at 0.046 µg/mL. In addition, the “EC resulting in A450 0.4” value in assay [12] is 1.7 ng/mL. Besides, the “minimal absorbance at 450 nm” value in assay [20] was determined as 0.103.

B3: SVT13L (VHH)
VHH: QVQLQESGGGLVQAGGSLRLSCAVSGTNFDDYAIGWFRQAPGKRREAVACISKTDGVTRYGNGVKGRFTISSDEARNTVFLQMNDLKDEDTAIYYCIGDFKSCGMGYKPIDHWGRGIQVTVSS
As to B3, the “EC resulting in A450 0.2” value in [2] is 1.3 ng/mL; in [15] it was 1.9 ng/mL. For the same molecule, the “maximal absorbance at 450 nm” value is 1.06 in assay [2]; 0.487 in assay [5]; 1.48 in [12]; 1.54 in assay [15]; 1.1 in [21]. Besides, the “% inhibition of binding” value in assay [3] turned out to be 2%; in assay [4] it was 95%; in assay [6] it was 7%; in assay [7], 8%; in assay [8] it was 1%; in assay [9], 91%. The “% inhibition of binding” value in assay [10] is 0%; in assay [13] it was 5%; in assay [14] it was 92%; in assay [16], 13%; in assay [17], 1%; in assay [18] it was -19%. For the same molecule, the “% inhibition of binding” value in assay [19] amounted to 2%; in assay [22], 91%. The “EC resulting in A450 0.15” value in [5] turned out to be 4.1 ng/mL. Also, the “concentration giving A450 of 0.59” value in assay [11] was determined as 0.082 µg/mL. Besides, in assay [12], the “EC resulting in A450 0.4” value amounted to 0.57 ng/mL. For the same molecule, the “minimal absorbance at 450 nm” value in assay [20] was found to be 0.126.

B4: SVT15L (VHH)
VHH: QVQLQESGGGLVQTGGSLRLSCRASGRAFANYHFGWFRQAPGKDREFVASISWKGGSTYYANFALGRFTSSVDRAESSVYLQMSGLTPEDTATYYCAAHDGGDWNYHTGMDYWGKGILVTVSS
Regarding B4, the entries for the “EC resulting in A450 0.2” value in assay [2] and in assay [15] were 5.7 ng/mL and 2.8 ng/mL, respectively. The “maximal absorbance at 450 nm” value in [2] came to 0.825; in assay [5], 0.477; in [12] it was 1.4; in [15], 1.34; in [21], 0.528. Moreover, the “% inhibition of binding” value in assay [3] was 0%; in [4] it was 2%; in [6] it was 6%; in assay [7], 96%; in [8], -5%; in [9], 10%. The “% inhibition of binding” value was found to be 4% in assay [10]; 7% in assay [13]; 2% in assay [14]; 15% in [16]; 1% in [17]; 96% in [18]. Besides, the “% inhibition of binding” value in assay [19] was determined as 6%; in [22] it was 5%. Besides, in assay [5], the “EC resulting in A450 0.15” value was found to be 5.7 ng/mL. Further, in [11], the “concentration giving A450 of 0.59” value was 0.072 µg/mL. For the same molecule, the “EC resulting in A450 0.4” value in assay [12] turned out to be 2.8 ng/mL. For the same molecule, the “minimal absorbance at 450 nm” value in assay [20] was 0.14.

B5: SVT22L (VHH)
VHH: QVQLQESGGGLVQAGESLRLSCTASGISFDDYAIGWFRQAPGQQRKGVACISKADGRTDYLGSVKGRFTLSTDNTKNTVHLQMNNLKPEDTALYTCAAEYKSCGMGYKPIDYWGQGMQVTVSS
Turning to B5, the “EC resulting in A450 0.2” value came to 2.6 ng/mL in [2] and 2 ng/mL in assay [15]. Further, the “maximal absorbance at 450 nm” value in assay [2] turned out to be 0.799; in [5], 0.318; in assay [12] it was 1.34; in assay [15] it was 1.59; in assay [21], 0.981. The “% inhibition of binding” value stood at 3% in [3]; 95% in assay [4]; 4% in assay [6]; 11% in [7]; 5% in [8]; 93% in [9]. Further, the “% inhibition of binding” value amounted to 10% in assay [10]; 0% in assay [13]; 94% in assay [14]; 1% in [16]; 6% in assay [17]; 2% in assay [18]. Also, the entries for the “% inhibition of binding” value in [19] and in assay [22] were 8% and 92%, respectively. For the same molecule, in [5], the “EC resulting in A450 0.15” value came to 5.4 ng/mL. Besides, the “concentration giving A450 of 0.59” value in assay [11] turned out to be 0.105 µg/mL. Further, the “EC resulting in A450 0.4” value in assay [12] worked out at 1.3 ng/mL. For the same molecule, in assay [20], the “minimal absorbance at 450 nm” value came out at 0.107.

These data come from US20240376185A1 (SMIVET B V, published 2024).
